{"source": "paper PMC4537050", "about": "“A long pentraxin-3-derived pentapeptide for the therapy of FGF8b-driven steroid hormone-regulated cancers” (Oncotarget, 2015)", "binders": {"B1": {"name": "Ac-ARPCA-NH2, acetylated pentapeptide corresponding to PTX3(100-104) (peptide)", "peptide": "Ac-ARPCA-NH2", "notes": "long pentraxin-3 (PTX3), residues 100-104 of the N-terminal extension; source: synthetic peptide, provided by R. Longhi and A. Gori (CNR, Milano, Italy)"}}, "experiment_in_all_cases": "SPR; BIAcore X-100; FGF8b (20 μg/ml in 10 mM sodium acetate, pH 6.0) or other FGFs (10 mM sodium acetate at optimal pH) immobilised on a CM5 sensor chip by EDC/NHS; peptide injected (ARPCA 8 μM to 2000 μM), 4 min at 30 μl/min, 10 min dissociation, in HBS; equilibrium values fitted with the Langmuir equation for monovalent binding", "details_in_all_cases": "both partners purified", "key": {"FGF5": {"molecular_target": "T1, FGF5 (UniProt P12034 21-268)", "T1 construct": "fibroblast growth factor 5 (FGF5)", "T1 sequence (looked up)": "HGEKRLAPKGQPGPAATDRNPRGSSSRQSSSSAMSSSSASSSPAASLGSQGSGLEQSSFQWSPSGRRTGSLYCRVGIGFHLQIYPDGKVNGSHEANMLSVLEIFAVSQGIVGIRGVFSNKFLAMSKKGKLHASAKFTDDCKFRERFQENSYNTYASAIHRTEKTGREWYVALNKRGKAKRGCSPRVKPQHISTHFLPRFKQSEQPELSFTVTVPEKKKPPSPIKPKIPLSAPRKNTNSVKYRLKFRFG"}, "FGF7": {"molecular_target": "T2, FGF7 (UniProt P21781 32-194)", "T2 construct": "fibroblast growth factor 7 (FGF7)", "T2 sequence (looked up)": "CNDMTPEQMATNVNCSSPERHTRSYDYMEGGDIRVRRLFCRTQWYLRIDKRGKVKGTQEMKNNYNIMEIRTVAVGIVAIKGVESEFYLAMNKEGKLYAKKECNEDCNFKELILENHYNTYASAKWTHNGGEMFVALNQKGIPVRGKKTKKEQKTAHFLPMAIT"}, "FGF22": {"molecular_target": "T3, FGF22 (UniProt Q9HCT0 23-170)", "T3 construct": "fibroblast growth factor 22 (FGF22)", "T3 sequence (looked up)": "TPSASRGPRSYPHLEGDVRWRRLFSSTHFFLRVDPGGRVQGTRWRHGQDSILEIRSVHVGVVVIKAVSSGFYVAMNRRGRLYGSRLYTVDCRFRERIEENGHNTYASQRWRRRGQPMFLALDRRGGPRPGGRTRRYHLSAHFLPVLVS"}, "FGF17": {"molecular_target": "T4, FGF17 (UniProt O60258 23-216)", "T4 construct": "fibroblast growth factor 17 (FGF17)", "T4 sequence (looked up)": "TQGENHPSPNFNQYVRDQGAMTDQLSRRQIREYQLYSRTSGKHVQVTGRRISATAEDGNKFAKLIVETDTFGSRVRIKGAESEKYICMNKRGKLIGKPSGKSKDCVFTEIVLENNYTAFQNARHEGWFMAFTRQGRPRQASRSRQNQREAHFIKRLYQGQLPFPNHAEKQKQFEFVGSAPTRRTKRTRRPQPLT"}, "FGF18": {"molecular_target": "T5, FGF18 (UniProt O76093 28-207)", "T5 construct": "fibroblast growth factor 18 (FGF18)", "T5 sequence (looked up)": "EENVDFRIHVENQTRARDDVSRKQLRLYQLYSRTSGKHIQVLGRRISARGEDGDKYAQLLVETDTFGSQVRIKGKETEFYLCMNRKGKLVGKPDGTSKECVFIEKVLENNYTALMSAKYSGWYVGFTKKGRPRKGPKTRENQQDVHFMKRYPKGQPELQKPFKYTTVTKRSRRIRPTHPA"}, "FGF16": {"molecular_target": "T6, FGF16 (UniProt O43320 1-207)", "T6 construct": "fibroblast growth factor 16 (FGF16)"}, "FGF20": {"molecular_target": "T7, FGF20 (UniProt Q9NP95 1-211)", "T7 construct": "fibroblast growth factor 20 (FGF20)", "T7 sequence (Q9NP95 whole entry)": "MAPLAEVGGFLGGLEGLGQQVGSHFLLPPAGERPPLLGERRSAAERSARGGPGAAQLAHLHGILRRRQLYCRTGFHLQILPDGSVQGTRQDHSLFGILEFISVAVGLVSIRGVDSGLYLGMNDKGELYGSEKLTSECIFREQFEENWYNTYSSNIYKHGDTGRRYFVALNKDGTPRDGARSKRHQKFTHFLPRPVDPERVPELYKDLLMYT"}}}
{"binder": "B1", "values": [{"measurement": "Kd", "setting": "FGF5", "result": 299, "unit": "µM"}, {"measurement": "Kd", "setting": "FGF7", "result": 885, "unit": "µM"}, {"measurement": "Kd", "setting": "FGF22", "result": 129, "unit": "µM"}, {"measurement": "Kd", "setting": "FGF17", "result": 476, "unit": "µM"}, {"measurement": "Kd", "setting": "FGF18", "result": 26, "unit": "µM"}, {"measurement": "Kd", "setting": "FGF16", "result": 112, "unit": "µM"}, {"measurement": "Kd", "setting": "FGF20", "result": 264, "unit": "µM"}]}
